Results published in patent US20050142582.

Tested on: USF1 (upstream stimulatory factor) (Ciona intestinalis)
Assay: SPR
Conditions: binding good, dimer

Chain of USF1 (upstream stimulatory factor) (Ciona intestinalis) (chain, as listed by the source): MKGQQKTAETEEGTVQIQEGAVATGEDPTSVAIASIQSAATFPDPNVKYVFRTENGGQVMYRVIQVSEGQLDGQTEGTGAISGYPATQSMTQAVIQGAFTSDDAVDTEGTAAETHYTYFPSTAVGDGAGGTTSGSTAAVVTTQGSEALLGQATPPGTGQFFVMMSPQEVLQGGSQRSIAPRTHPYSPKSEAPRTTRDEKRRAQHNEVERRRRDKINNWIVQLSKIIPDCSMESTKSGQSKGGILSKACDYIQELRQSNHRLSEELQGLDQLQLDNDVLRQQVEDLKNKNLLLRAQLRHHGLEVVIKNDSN

| Sequence | Kd |
| --- | --- |
| GGTATTGAGGGTCGCATCGGCAAAAAGGATTGCCCAGGTCTGCTGTCTAGCCGGATTCGATGGCTCTAACTCTCCTCT [6H1] | 36 nM |
| GGTATTGAGGGTCGCATCGGCTTCAGGTTGGTCTGGTTGGGTTTGGCTCCTGTGTACGGATGGCTCTAACTCTCCTCT [6H5] | 176 nM |
